Measurements taken from patent US20230272056A1 (Merck Sharp & Dohme, published 2023).
Residue numbers refer to the chain shown, from its start. Numbers in names are those of the source.

B1: VH D52Y (77BIT) (Fab, V domains shown)
VH: EVQLVQSGAEVKKPGASVKVSCKASGYTFTSYWMHWVRQAPGQGLEWMGRIYPQSGGIKYAQKFQGRATLTVDTSTSTAYMELSRLRSDDTAVYYCARWDYGGYFDVWGQGTLVTVSS
VL: DIQMTQSPSSLSASVGDRVTITCRASQDITNYLNWYQQKPGKAVKLLIYYTSRLHSGVPSRFSGSGSGTDYTLTISSLQPEDFATYFCQQGDTLPWTFGQGTKLEIKR
B2: VH D96Y (64BIT) (Fab, V domains shown)
VH: B1 VH with Y52D, D100Y
VL: B1 VL
B3: VH F29Y (68BIT) (Fab, V domains shown)
VH: B1 VH with F29Y, Y52D
VL: B1 VL
B4: VH G55Y (81BIT) (Fab, V domains shown)
VH: B1 VH with Y52D, G56Y
VL: B1 VL
B5: VH G56Y (82BIT) (Fab, V domains shown)
VH: B1 VH with Y52D, G57Y
VL: B1 VL
B6: VH G98Y (65BIT) (Fab, V domains shown)
VH: B1 VH with Y52D, G102Y
VL: B1 VL
B7: VH G99Y (66BIT) (Fab, V domains shown)
VH: B1 VH with Y52D, G103Y
VL: B1 VL
B8: VH H35Y (73BIT) (Fab, V domains shown)
VH: B1 VH with H35Y, Y52D
VL: B1 VL
B9: VH I51Y (76BIT) (Fab, V domains shown)
VH: B1 VH with I51Y, Y52D
VL: B1 VL
B10: VH I57Y (83BIT) (Fab, V domains shown)
VH: B1 VH with Y52D, I58Y
VL: B1 VL
B11: VH K58Y (84BIT) (Fab, V domains shown)
VH: B1 VH with Y52D, K59Y
VL: B1 VL
B12: VH M34Y (72BIT) (Fab, V domains shown)
VH: B1 VH with M34Y, Y52D
VL: B1 VL
B13: VH P52aY (78BIT) (Fab, V domains shown)
VH: B1 VH with Y52D, P53Y
VL: B1 VL
B14: VH Q53Y (79BIT) (Fab, V domains shown)
VH: B1 VH with Y52D, Q54Y
VL: B1 VL
B15: VH R50Y (75BIT) (Fab, V domains shown)
VH: B1 VH with R50Y, Y52D
VL: B1 VL
notes: also called VH RSOY (75BIT)
B16: VH S31Y (70BIT) (Fab, V domains shown)
VH: B1 VH with S31Y, Y52D
VL: B1 VL
B17: VH S54Y (80BIT) (Fab, V domains shown)
VH: B1 VH with Y52D, S55Y
VL: B1 VL
B18: VH T28Y (67BIT) (Fab, V domains shown)
VH: B1 VH with T28Y, Y52D
VL: B1 VL
B19: VH T30Y (69BIT) (Fab, V domains shown)
VH: B1 VH with T30Y, Y52D
VL: B1 VL
B20: VH W33Y (71BIT) (Fab, V domains shown)
VH: B1 VH with W33Y, Y52D
VL: B1 VL
B21: VH W95Y (88BIT) (Fab, V domains shown)
VH: B1 VH with Y52D, W99Y
VL: B1 VL
B22: VL A25Y (39BIT) (Fab, V domains shown)
VH: B1 VH with Y52D
VL: B1 VL with A25Y
B23: VL D28Y (42BIT) (Fab, V domains shown)
VH: B1 VH with Y52D
VL: B1 VL with D28Y
B24: VL D92Y (57BIT) (Fab, V domains shown)
VH: B1 VH with Y52D
VL: B1 VL with D92Y
B25: VL G91Y (56BIT) (Fab, V domains shown)
VH: B1 VH with Y52D
VL: B1 VL with G91Y
B26: VL H55Y (52BIT) (Fab, V domains shown)
VH: B1 VH with Y52D
VL: B1 VL with H55Y
B27: VL I29Y (43BIT) (Fab, V domains shown)
VH: B1 VH with Y52D
VL: B1 VL with I29Y
B28: VL L33Y (46BIT) (Fab, V domains shown)
VH: B1 VH with Y52D
VL: B1 VL with L33Y
B29: VL L54Y (51BIT) (Fab, V domains shown)
VH: B1 VH with Y52D
VL: B1 VL with L54Y
B30: VL L94Y (59BIT) (Fab, V domains shown)
VH: B1 VH with Y52D
VL: B1 VL with L94Y
B31: VL N31Y (45BIT) (Fab, V domains shown)
VH: B1 VH with Y52D
VL: B1 VL with N31Y
B32: VL N34Y (47BIT) (Fab, V domains shown)
VH: B1 VH with Y52D
VL: B1 VL with N34Y
B33: VL P95Y (60BIT) (Fab, V domains shown)
VH: B1 VH with Y52D
VL: B1 VL with P95Y
B34: VL Q27Y (41BIT) (Fab, V domains shown)
VH: B1 VH with Y52D
VL: B1 VL with Q27Y

Target: T1, human LAP-TGFB1 Fc fusion (human)
T1 construct: also called human LAP-TGFβ1-Fc; human LAP-TGFβ-Fc isoform 1
T1 sequence (chain, as listed by the source limits assumed): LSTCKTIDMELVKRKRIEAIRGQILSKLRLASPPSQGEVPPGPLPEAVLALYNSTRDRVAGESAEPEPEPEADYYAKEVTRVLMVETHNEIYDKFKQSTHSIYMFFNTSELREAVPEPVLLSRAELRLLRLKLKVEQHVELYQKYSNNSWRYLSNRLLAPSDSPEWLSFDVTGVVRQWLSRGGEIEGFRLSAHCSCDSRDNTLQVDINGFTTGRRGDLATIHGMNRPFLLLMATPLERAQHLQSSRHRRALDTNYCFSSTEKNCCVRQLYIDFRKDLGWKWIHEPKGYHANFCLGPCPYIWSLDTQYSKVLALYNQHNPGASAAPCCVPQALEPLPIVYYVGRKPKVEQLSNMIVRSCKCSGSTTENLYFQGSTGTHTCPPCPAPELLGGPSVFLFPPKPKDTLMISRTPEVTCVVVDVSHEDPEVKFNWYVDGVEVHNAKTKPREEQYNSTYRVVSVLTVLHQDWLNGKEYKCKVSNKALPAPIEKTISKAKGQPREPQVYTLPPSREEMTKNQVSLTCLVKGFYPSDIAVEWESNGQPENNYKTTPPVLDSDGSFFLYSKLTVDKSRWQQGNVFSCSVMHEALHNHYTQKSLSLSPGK
Assay: BLI off-rate screen
Method: The Fab mutants including a positive control, 20E6 Fab, and a negative control Fab (Molecular Innovations, catalog HU-FAB-4510) were diluted to 200 nM in assay buffer and loaded to FAB2G sensors for 180 seconds followed by a one-hour incubation at room temperature in assay buffer to equilibrate the tips. The Fab loaded sensors were assessed for binding with 100 nM human LAP-TGFβ for 180 seconds followed by a 180 second dissociation phase in assay buffer on a ForteBio HTX (software version 9.0.0.66). Non-specific binding to the negative control Fab was subtracted and the binding sensorgrams were aligned to the start of the association phase on the X and Y axis. The Fab binding was fit with the 1:1 binding model, dissociation phase only, with local fitting using ForteBio Data Analysis 9.0 software.
Twenty-three variants containing a single tyrosine substitution in the light chain CDRs (at one of amino acid positions 24-31, 33, 34, 51-56, and 89-95 according to Kabat numbering scheme) and 21 similar heavy chain CDR variants (at amino acids positions 28-31, 33-35, 50-58 including 52a, 95, 96, 98, and 99 according to Kabat numbering scheme) were generated according to FIG. 1 and listed in Table 6 and their interactions with human LAP-TGFb1 were analyzed by ForteBio interferometry. […] In those sequences the VL is correct, even though these sequences are from the heavy chain. Thus, the VL_X ##Y refers to the position of the tyrosine mutation within the antibody, regardless of whether the sequence is a heavy or light chain.

Binder | Binding response [nm] | binding result | Fold change [fold] | koff [s⁻¹]
B1 | 0.042 | no binding (tested: 100 nM antigen) | – | –
B2 | 0.102 | – | 0.6 | 0.0746
B3 | 0.597 | – | 1.3 | 0.0336
B4 | 0.542 | – | 1.2 | 0.036
B5 | 0.569 | – | 1 | 0.0436
B6 | 0.037 | no binding (tested: 100 nM antigen) | – | –
B7 | 0.055 | – | 0.9 | 0.0476
B8 | 0.334 | – | 0.9 | 0.0471
B9 | 0.6 | – | 1.1 | 0.0379
B10 | 0.555 | – | 1 | 0.043
B11 | 0.339 | – | 1.3 | 0.0327
B12 | 0.623 | – | 1 | 0.0414
B13 | 0.566 | – | 0.9 | 0.0454
B14 | 0.625 | – | 1 | 0.0416
B15 | 0.324 | – | 0.9 | 0.0445
B16 | 0.696 | – | 1.2 | 0.0361
B17 | 0.588 | – | 1 | 0.0406

Binder | Binding response [nm] | binding result | Fold change [fold] | koff [s⁻¹]
B18 | 0.326 | – | 1.2 | 0.0343
B19 | 0.372 | – | 1.2 | 0.0365
B20 | 0.77 | – | 1.8 | 0.023
B21 | 0.638 | – | 1 | 0.0425
B22 | 0.043 | no binding (tested: 100 nM antigen) | – | –
B23 | 0.207 | – | 1.3 | 0.0318
B24 | 0.046 | no binding (tested: 100 nM antigen) | – | –
B25 | 0.044 | no binding (tested: 100 nM antigen) | – | –
B26 | 0.265 | – | 1.1 | 0.0385
B27 | 0.071 | – | 1.6 | 0.0264
B28 | 0.095 | – | 1 | 0.0413
B29 | 0.299 | – | 1 | 0.0405
B30 | 0.308 | – | 0.7 | 0.0571
B31 | 0.344 | – | 1.8 | 0.0241
B32 | 0.221 | – | 1 | 0.0436
B33 | 0.015 | no binding (tested: 100 nM antigen) | – | –
B34 | 0.427 | – | 1.8 | 0.0229
